Results on eight sequences are retold here after the DeepSol protein solubility set.

The nature of the data set: soluble on expression in E. coli; label from the status in PepcDB or PDB records.
As to “MAHHHHHHMMSRFETSPRDRRYNSAVRSSLFSFVLRRRRNLHDKKKPPLSANGPLTSVVHPRARNHLPDEVNLTTTLVRSCFCINIAPLPARSCASYSPRCSEQTVSRFFPHPFTFRASAIRGHNARLQLRRCTHHFLETPL”, the “soluble on expression in E. coli” value was “not soluble”.
Consider “MAHHHHHHMNAVDAEYVEHHGVDNLIIPISVSEPKETKRGDYAYCVDVVVHTLLIKKCSRGHRLLEHLTEKLVTLSIEWIRSECGVQLLPRSCRIAGNPLYFDDTVDTPKSIASIIENAAELLQRKSNSSNSRKDEQDTIPDALNLRKAQVPESKQPLIREVISTPAIKKGFLVDGNARLYGPDGSSEGSSKAPDPLAHIPESLRERCRIIDTRNMEGLTASPAKTMKSVDKTANTHTSGTFVAPTSEPQGKDEANWARFSIERTGEKVIVRFLAPDSVSSLHDIDLSATKDTLEINGSVTQLPVPIVTDDVRAKFVKATRILVVTCLIDVS”, for which the “soluble on expression in E. coli” value is on record as “not soluble”.
As for “MAHHHHHHMNFLRRNAANLCKGKVLGKHLNCSVHELTNLNKRKISNITDLGKCGQRYQATHSGSTIGAKRFASSEAQKLSEVVKAEVQHEKSNYEAPDNIKKFLQTSGWKFEEQEGDVNMVLTKNVDGMKIIIDFQLVSPFQAEGENEAQAEMTDFSVTVEKPNKQGGITFYCTTLQNDEKFRYMIGNVKYYKNEEGKNSVSAYNGPEFEDLDDSLQTSLDEWLANLGVDSELCDFIDSCSIDKEQREYMSWLQNISNFIES”, the entry is “not soluble”.
To “MAHHHHHHMNGLRISTYFSAFKMRWMLENVPKVEEARKRGTLCFGTIDAWLLWKLSGGKVFVTDVTNASRTFLMDIRTCKWSPELCDKLGIPMACLPEIRSNSELLTYVLSDEGGLSAALRHPTPIMGSIADQQGALLGNMCFKEGESKNTYGTGCFLLMTVGEKIRFSSHGLLSTVAYQIGNKSPFIYALEGSIAGAGATIEWLKNNMKLIDDVSDCEKFAQTVSDTHGVVFVPAFSGFLAPSWDPSARGSIFGMTLKTTRAHVLRAALLAIALQVVDVLEAMEKDAEVKVQFLRVDGGLTKNHLLMKMQSDLLGINLHRPTMAETTALGAALCAGLAAGVWKSLEEVKTISQQANVWRVIRPAASKDSQQMLRAQWKRAKQQAKWAKL” belongs “not soluble”; to “MAHHHHHHMPIKNVQEFLPNVRPDAFPVVVAVQAQASIPVGINLAELSCATRNVEYMPNNRIPSATMRLHEPTAVVMMHNSGALSIIGAASVSEARQAAELAARIIRKALNLNFSSLKFRVRSIAARFNVCSPIRLDKLAAYQLDPAMSIGVAKLQVSYEPERFNGCVLRLVGKSSRGDNQWSVSCSVFVTGKVQLMGARSMDELRFAFNAFVPIIAKNLDERKTA”, “not soluble”.
As for “MAHHHHHHMPSDGEGKVQQVNIDEIDAVTGFKKAELYVWNAYAAAFLAEGGEPETDVEAWIDDFCQRSEESGAVFDRNFVKSVCTLGIYAGPRDEFQQRSGCGKATYASGDTYEGEFFEGKKHGRGQYIFVSKGRSEADRVVSKEVELLTSAGKDAKAMVTEIATKLQLGRHVVEGIMQYGQRPCYHGDYVRGKRTGRGVMKNKDGTLYQGEFLENKRHGQGVYYYLNGDVYSGNWKAGAKDGYGTYHFAEGSEYRGEWVRGNFVQGQWILQGGSYYEGKFDKKNRPLDDAASLHYPSIQMAQTGAFRRGIWAPTSALQVCSEVPVDGMAWAD”, the entry is “soluble”; as for “MAHHHHHHMPSLNNNTIREDVIFKRRVKDVLLRHGGTGGLVKVLIDFNAREAVAARQQRQTTSTDSGSSRTDVGLSHAQLLLFLQDYGVELTPFEAAYLCRAFDDHGSGFISGETFTRHLTGLNERRLRAVKKAWQSLERRNGASGKVSRELLLSTFAAVAAERAHAAAGDPGNPADGAAHDAIATTSFSSPVGGALQSTFGGGHGMHEHLKEAYMTSMMGRGSGFMAKPNAAAGGADGESGEAADRVSYAEYLAFYAGVSPQFATDEAFVTHVLQSWAADDAARPALDETAREWGPDGDPLALDGPRYVKEALNLELGISSKSYNYSHMQREHPYVEPLPPLNRPDIMATTMQRTYVPFDKAAQMLADPLVTRRGQSK”, “not soluble”.
“MAHHHHHHMQEVMQKALAGRYDPLPPTISPEMTEVVTSLLCGDPHARPSSSKLLNMPICKLFVSGLLEIVQTQPSFAGPLRDTISTHIQSVKQSLKEERRVTVRQMEESQSAAAASTTILEGATPMGSVGDLTLYEGIVKKQSGDLAWKRRYLCIRGALEEGERLDVGRMPKFKSLDLVLAVSKETMRQQCITTPFSELEDVFPVASKYTGSNAQHVFAVAFKTGRRLLFQARGDPERDAWMQKIQQTLGIDEAD”: the “soluble on expression in E. coli” value is “not soluble”.
